Assay [1] concerns the target embryonic breast muscle myosin isolated from d15 chick embryos (chicken) (UniProt P02565).
Assay [2] concerns the target embryonic myosin isolated from primary culture myotubes (chicken) (UniProt P02565).

On to “F-actin (from UniProt P68139 1-377) (natural protein)”, for which the actin filament velocity, in vitro motility assay in assay [1] amounted to 3.8 um/s; in assay [2] it was 3.1 um/s.

These data come from PMC2120956.
